Experimental data from patent US4797472A, “New peptide derivatives” (KabiVitrum AB, priority 1986, dated 1989).
Square brackets hold non-standard residues; d marks the D form. Peptide text beside a SMILES is read from it. * marks the point of attachment. pNA = O=[N+]([O-])c1ccc(N*)cc1; Cbz = O=C(OCc1ccccc1)*; Ms = CS(=O)(=O)*

Columns and labels:
Thrombin bovine = molecular target: T1, Thrombin bovine (Bos taurus, UniProt P00735); assay: Determination of thrombin sensitivity; format: biochemical; details: for Km: substrate 0.1-0.4 mmol/l
T1 construct: Thrombin bovine (KabiVitrum) with a constant concentration E0 =1.3 nmol/l; purchased KabiVitrum

FXa bovine = FXa bovine (Bos taurus, UniProt P00743); assay: Determination of the kinetic constants for FXa bovine (chromogenic/fluorogenic substrate hydrolysis)
Description: (§1) Enzymes and substrates are mixed in a buffer solution at -37° C. The absorbance change per minute is measured at 405 nm in a spectrophotometer (pNA-substrate) or in a spectrofluorometer at excitation wavelength 380 nm and emission wavelength 440 nm (AMC-substrate).
(§2) FXa bovine (KabiVitrum) with a constant enzyme concentration
E0 =4 nmol/l (pNA-substrate)
E0 =2 nmol/l (AMC-substrate)
(§3) and the substrate in concentrations between 0.01-0.4 mmol/l (Si) are mixed in a trisbuffer solution 0.05 mol/l, pH=8.3, I=0.25 (NaCl) at 37° C. Absorbance change per minute is measured at 405 nm in a spectrophotometer for pNA-substrate and in a spectrofluorometer at emission wavelength 440 nm for AMC-substrate, respectively.

FXa human = molecular target: T2, FXa human (Homo sapiens, UniProt P00742); assay: Determination of kinetic constants for FXa human (plasma activated with RVV+CaCl2); format: biochemical; details: for Km: substrate 0.1-0.7 mmol/l, trisbuffer pH 7.0, I=0.25, polybrene, 37° C.
T2 construct: from tissue; host or cells: human plasma
Description: The kinetic data for the substrates are determined by measuring the initial velocity of hydrolysis (Vi) at different substrate concentrations (Si) and at constant enzyme concentrations (Eo). The binding constant (Km) and the maximum velocity (Vmax) are obtained in known manner from Lineweaver-Burk-plot, then the Kcat is calculated (Hemker H. C. loc. cit.)
The substrates in concentrations between 0.1-0.7 mmol/l (Si) are mixed with FXa human plasma and treated according to the method as described by Aurell; L., et al. (Perspectives in Hemostatis, Ed. Fareed J. et al, New York, Pergamon Press 1981, p. 382-388).
10 μl test plasma, control or standard and 200 μl trisbuffer solution (0.05 mol/l tris, pH 7.0, I=0.25 (NaCl)), polybrene (0.1 g/l) are mixed and incubated at 37° C. for 2-4 minutes. 200 μl substrate (37° C.) in concentrations between 0.1-0.7 mmol/l dissolved in trisbuffer solution prepared according to the above are added. The mixture is well stirred and within 30 seconds 200 μl RVV+CaCl2 (20°-25° C.) are added and the mixture is stirred. The absorbance change is measured at once in a spectrophotometer at 405 nm and 37° C.

[1] = substrate: CC(C)C[C@@H](NS(C)(=O)=O)C(=O)NCC(=O)N[C@@H](CCCNC(=N)N)C(=O)Nc1ccc([N+](=O)[O-])cc1; assay: purified protein, by the assay type; details: other: FXa bovine E0=4 nmol/l (pNA-substrate) or 2 nmol/l (AMC-substrate), substrate 0.01-0.4 mmol/l, trisbuffer 0.05 mol/l, pH 8.3, I=0.25, 37° C.
Description: as §1, §2
E0 =4 nmol/l (pNA-substrate)
E0 =2 nmol/l (AMC-substrate)
as §3

[2] = substrate: N=C(N)NCCC[C@H](NC(=O)CNC(=O)[C@@H](CCCNC(=N)N)NC(=O)OCc1ccc([N+](=O)[O-])cc1)C(=O)Nc1ccc([N+](=O)[O-])cc1; assay: purified protein, by the assay type; details: other: FXa bovine E0=4 nmol/l (pNA-substrate) or 2 nmol/l (AMC-substrate), substrate 0.01-0.4 mmol/l, trisbuffer 0.05 mol/l, pH 8.3, I=0.25, 37° C.
Description: as §1, §2
E0 =4 nmol/l (pNA-substrate)
E0 =2 nmol/l (AMC-substrate)
as §3

[3] = substrate: CC(C)(C)OC(=O)N[C@H](CCCNC(=N)N)C(=O)NCC(=O)N[C@@H](CCCNC(=N)N)C(=O)Nc1ccc([N+](=O)[O-])cc1; assay: purified protein, by the assay type; details: other: FXa bovine E0=4 nmol/l (pNA-substrate) or 2 nmol/l (AMC-substrate), substrate 0.01-0.4 mmol/l, trisbuffer 0.05 mol/l, pH 8.3, I=0.25, 37° C.
Description: as §1, §2
E0 =4 nmol/l (pNA-substrate)
E0 =2 nmol/l (AMC-substrate)
as §3

[4] = substrate: N=C(N)NCCC[C@H](NC(=O)CNC(=O)[C@@H](CCCNC(=N)N)NS(=O)(=O)c1ccc([N+](=O)[O-])cc1)C(=O)Nc1ccc([N+](=O)[O-])cc1; assay: purified protein, by the assay type; details: other: FXa bovine E0=4 nmol/l (pNA-substrate) or 2 nmol/l (AMC-substrate), substrate 0.01-0.4 mmol/l, trisbuffer 0.05 mol/l, pH 8.3, I=0.25, 37° C.
Description: as §1, §2
E0 =4 nmol/l (pNA-substrate)
E0 =2 nmol/l (AMC-substrate)
as §3

[5] = substrate: CCOC(=O)N[C@H](CCCNC(=N)N)C(=O)NCC(=O)N[C@@H](CCCNC(=N)N)C(=O)Nc1ccc([N+](=O)[O-])cc1; assay: purified protein, by the assay type; details: other: FXa bovine E0=4 nmol/l (pNA-substrate) or 2 nmol/l (AMC-substrate), substrate 0.01-0.4 mmol/l, trisbuffer 0.05 mol/l, pH 8.3, I=0.25, 37° C.
Description: as §1, §2
E0 =4 nmol/l (pNA-substrate)
E0 =2 nmol/l (AMC-substrate)
as §3

[6] = substrate: CCS(=O)(=O)N[C@H](CCCNC(=N)N)C(=O)NCC(=O)N[C@@H](CCCNC(=N)N)C(=O)Nc1ccc([N+](=O)[O-])cc1; assay: purified protein, by the assay type; details: other: FXa bovine E0=4 nmol/l (pNA-substrate) or 2 nmol/l (AMC-substrate), substrate 0.01-0.4 mmol/l, trisbuffer 0.05 mol/l, pH 8.3, I=0.25, 37° C.
Description: as §1, §2
E0 =4 nmol/l (pNA-substrate)
E0 =2 nmol/l (AMC-substrate)
as §3

[7] = substrate: CN(CC(=O)N[C@@H](CCCNC(=N)N)C(=O)Nc1ccc([N+](=O)[O-])cc1)C(=O)[C@@H](CCCNC(=N)N)NC(=O)OCc1ccccc1; assay: purified protein, by the assay type; details: other: FXa bovine E0=4 nmol/l (pNA-substrate) or 2 nmol/l (AMC-substrate), substrate 0.01-0.4 mmol/l, trisbuffer 0.05 mol/l, pH 8.3, I=0.25, 37° C.
Description: as §1, §2
E0 =4 nmol/l (pNA-substrate)
E0 =2 nmol/l (AMC-substrate)
as §3

[8] = substrate: CS(=O)(=O)N[C@H](CCCNC(=N)N)C(=O)NCC(=O)N[C@@H](CCCNC(=N)N)C(=O)Nc1ccc([N+](=O)[O-])cc1; assay: purified protein, by the assay type; details: other: FXa bovine E0=4 nmol/l (pNA-substrate) or 2 nmol/l (AMC-substrate), substrate 0.01-0.4 mmol/l, trisbuffer 0.05 mol/l, pH 8.3, I=0.25, 37° C.
Description: as §1, §2
E0 =4 nmol/l (pNA-substrate)
E0 =2 nmol/l (AMC-substrate)
as §3

[9] = substrate: N=C(N)NCCC[C@H](NC(=O)CNC(=O)[C@@H](CCCNC(=N)N)NC(=O)OCc1ccccc1)C(=O)Nc1ccc([N+](=O)[O-])cc1; assay: purified protein, by the assay type; details: other: FXa bovine E0=4 nmol/l (pNA-substrate) or 2 nmol/l (AMC-substrate), substrate 0.01-0.4 mmol/l, trisbuffer 0.05 mol/l, pH 8.3, I=0.25, 37° C.
Description: as §1, §2
E0 =4 nmol/l (pNA-substrate)
E0 =2 nmol/l (AMC-substrate)
as §3

[10] = substrate: Cc1ccc(S(=O)(=O)N[C@H](CCCNC(=N)N)C(=O)NCC(=O)N[C@@H](CCCNC(=N)N)C(=O)Nc2ccc([N+](=O)[O-])cc2)cc1; assay: purified protein, by the assay type; details: other: FXa bovine E0=4 nmol/l (pNA-substrate) or 2 nmol/l (AMC-substrate), substrate 0.01-0.4 mmol/l, trisbuffer 0.05 mol/l, pH 8.3, I=0.25, 37° C.
Description: as §1, §2
E0 =4 nmol/l (pNA-substrate)
E0 =2 nmol/l (AMC-substrate)
as §3

[11] = substrate: COc1ccc(COC(=O)N[C@H](CCCNC(=N)N)C(=O)NCC(=O)N[C@@H](CCCNC(=N)N)C(=O)Nc2ccc([N+](=O)[O-])cc2)cc1; assay: purified protein, by the assay type; details: other: FXa bovine E0=4 nmol/l (pNA-substrate) or 2 nmol/l (AMC-substrate), substrate 0.01-0.4 mmol/l, trisbuffer 0.05 mol/l, pH 8.3, I=0.25, 37° C.
Description: as §1, §2
E0 =4 nmol/l (pNA-substrate)
E0 =2 nmol/l (AMC-substrate)
as §3

[12] = substrate: N=C(N)NCCC[C@H](NC(=O)CNC(=O)[C@@H](CCCNC(=N)N)NS(=O)(=O)c1ccc2ccccc2c1)C(=O)Nc1ccc([N+](=O)[O-])cc1; assay: purified protein, by the assay type; details: other: FXa bovine E0=4 nmol/l (pNA-substrate) or 2 nmol/l (AMC-substrate), substrate 0.01-0.4 mmol/l, trisbuffer 0.05 mol/l, pH 8.3, I=0.25, 37° C.
Description: as §1, §2
E0 =4 nmol/l (pNA-substrate)
E0 =2 nmol/l (AMC-substrate)
as §3

[13] = substrate: COc1ccc(S(=O)(=O)N[C@H](CCCNC(=N)N)C(=O)NCC(=O)N[C@@H](CCCNC(=N)N)C(=O)Nc2ccc([N+](=O)[O-])cc2)cc1; assay: purified protein, by the assay type; details: other: FXa bovine E0=4 nmol/l (pNA-substrate) or 2 nmol/l (AMC-substrate), substrate 0.01-0.4 mmol/l, trisbuffer 0.05 mol/l, pH 8.3, I=0.25, 37° C.
Description: as §1, §2
E0 =4 nmol/l (pNA-substrate)
E0 =2 nmol/l (AMC-substrate)
as §3

[14] = substrate: N=C(N)NCCC[C@H](NC(=O)CNC(=O)[C@@H](CCCNC(=N)N)NS(=O)(=O)c1ccc(Cl)cc1)C(=O)Nc1ccc([N+](=O)[O-])cc1; assay: purified protein, by the assay type; details: other: FXa bovine E0=4 nmol/l (pNA-substrate) or 2 nmol/l (AMC-substrate), substrate 0.01-0.4 mmol/l, trisbuffer 0.05 mol/l, pH 8.3, I=0.25, 37° C.
Description: as §1, §2
E0 =4 nmol/l (pNA-substrate)
E0 =2 nmol/l (AMC-substrate)
as §3

[15] = substrate: Cc1cc(=O)oc2cc(NC(=O)[C@H](CCCNC(=N)N)NC(=O)CNC(=O)[C@@H](CCCNC(=N)N)NC(=O)OCc3ccccc3)ccc12; assay: purified protein, by the assay type; details: other: FXa bovine E0=4 nmol/l (pNA-substrate) or 2 nmol/l (AMC-substrate), substrate 0.01-0.4 mmol/l, trisbuffer 0.05 mol/l, pH 8.3, I=0.25, 37° C.
Description: as §1, §2
E0 =4 nmol/l (pNA-substrate)
E0 =2 nmol/l (AMC-substrate)
as §3

[16] = substrate: N=C(N)NCCC[C@H](NC(=O)CNC(=O)[C@@H](CCCNC(=N)N)NS(=O)(=O)Cc1ccccc1)C(=O)Nc1ccc([N+](=O)[O-])cc1; assay: purified protein, by the assay type; details: other: FXa bovine E0=4 nmol/l (pNA-substrate) or 2 nmol/l (AMC-substrate), substrate 0.01-0.4 mmol/l, trisbuffer 0.05 mol/l, pH 8.3, I=0.25, 37° C.
Description: as §1, §2
E0 =4 nmol/l (pNA-substrate)
E0 =2 nmol/l (AMC-substrate)
as §3

[17] = substrate: N=C(N)NCCC[C@H](NC(=O)CNC(=O)[C@@H](CCCNC(=N)N)NS(=O)(=O)c1ccccc1)C(=O)Nc1ccc([N+](=O)[O-])cc1; assay: purified protein, by the assay type; details: other: FXa bovine E0=4 nmol/l (pNA-substrate) or 2 nmol/l (AMC-substrate), substrate 0.01-0.4 mmol/l, trisbuffer 0.05 mol/l, pH 8.3, I=0.25, 37° C.
Description: as §1, §2
E0 =4 nmol/l (pNA-substrate)
E0 =2 nmol/l (AMC-substrate)
as §3

[18] = Thrombin bovine E0=1.3 nmol/l, trisbuffer pH 8.3, I=0.25, 37° C.
[19] = trisbuffer pH 7.0, I=0.25, 37° C.

T2 sequence (P00742 235-488 limits assumed): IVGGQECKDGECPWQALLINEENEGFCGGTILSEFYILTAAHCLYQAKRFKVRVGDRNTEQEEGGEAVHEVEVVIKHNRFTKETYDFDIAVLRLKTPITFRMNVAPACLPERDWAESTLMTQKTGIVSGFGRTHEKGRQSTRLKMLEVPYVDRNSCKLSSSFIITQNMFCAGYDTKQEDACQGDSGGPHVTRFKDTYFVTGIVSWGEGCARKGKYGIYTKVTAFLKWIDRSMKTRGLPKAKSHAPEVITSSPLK
T2 sequence (P00742 41-179 partner limits assumed): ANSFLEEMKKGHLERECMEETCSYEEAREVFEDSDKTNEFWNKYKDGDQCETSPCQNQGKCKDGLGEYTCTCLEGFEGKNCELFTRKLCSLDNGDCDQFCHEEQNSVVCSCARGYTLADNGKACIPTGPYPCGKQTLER
FXa bovine, sequence (P00743 41-180 partner limits assumed, one chain of several): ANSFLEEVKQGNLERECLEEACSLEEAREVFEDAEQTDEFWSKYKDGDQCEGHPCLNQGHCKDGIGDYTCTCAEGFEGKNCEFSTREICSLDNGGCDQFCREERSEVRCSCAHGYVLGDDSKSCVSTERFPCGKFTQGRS

## Bz--Ile--Glu--(γ--OR)--Gly--ARg--pNA.HCl [Example S-2222]
Thrombin bovine; Kcat/Km FXa bovine divided by Kcat/Km thrombin bovine
  ratio for the selectivity constant FXa bovine through thrombin: 19.4
Thrombin bovine; [18]
  Km: 710 µM
  Kcat: 13 sek^-1
Thrombin bovine; Thrombin bovine, trisbuffer pH 8.3, I=0.25, 37° C.
  Kcat /Km: 0.018 1/μmol · sek
FXa bovine; FXa bovine E0=4 nmol/l (pNA-substrate) or 2 nmol/l (AMC-substrate), substrate 0.01-0.4 mmol/l, trisbuffer 0.05 mol/l, pH 8.3, I=0.25, 37° C.
  Km: 510 µM
FXa bovine; FXa bovine E0=4 nmol/l (pNA-substrate) or 2 nmol/l (AMC-substrate), trisbuffer pH 8.3, I=0.25, 37° C.
  Kcat: 180 sek^-1
FXa bovine; FXa bovine, trisbuffer pH 8.3, I=0.25, 37° C.
  Kcat /Km (selectivity constant): 0.35 l/μmol · sek
FXa human
  Km: 1970 µM
FXa human; [19]
  Vmax: 46 µmol/L/min
  Vmax /Km: 0.023 min⁻¹

## N=C(N)NCCC[C@H](NC(=O)CNC(=O)[C@@H](CCCNC(=N)N)NS(=O)(=O)Cc1ccccc1)C(=O)Nc1ccc([N+](=O)[O-])cc1 [Example 16, N^α --Bzls--D--Arg--Gly--Arg--pNA.2HCl]
Thrombin bovine; [18]
  Km: 160 µM
FXa human
  Km: 50 µM

## COc1ccc(COC(=O)N[C@H](CCCNC(=N)N)C(=O)NCC(=O)N[C@@H](CCCNC(=N)N)C(=O)Nc2ccc([N+](=O)[O-])cc2)cc1 [Example 9, N^α --Moz--D--Arg--Gly--Arg--pNA.2HCl]
Thrombin bovine; [18]
  Km: 73 µM
FXa human
  Km: 210 µM

## CC(C)C[C@@H](NS(C)(=O)=O)C(=O)NCC(=O)N[C@@H](CCCNC(=N)N)C(=O)Nc1ccc([N+](=O)[O-])cc1 [CBS 31.39, CH3 SO2 --D--Leu--Gly--Arg--pNA.AcOH] (Ms-[dL]-Gly-Arg-pNA)
Thrombin bovine; [18]
  Km: 230 µM
FXa human
  Km: 1060 µM

## N=C(N)NCCC[C@H](NC(=O)CNC(=O)[C@@H](CCCNC(=N)N)NC(=O)OCc1ccccc1)C(=O)Nc1ccc([N+](=O)[O-])cc1 [Example 1, N^α --Z--D--Arg--Gly--Arg--pNA.2HCl] (Cbz-[dR]-Gly-Arg-pNA)
Thrombin bovine; [18]
  Km: 130 µM
FXa human
  Km: 380 µM

## CCS(=O)(=O)N[C@H](CCCNC(=N)N)C(=O)NCC(=O)N[C@@H](CCCNC(=N)N)C(=O)Nc1ccc([N+](=O)[O-])cc1 [Example 4, N^α --Ets--D--Arg--Gly--Arg--pNA.2HCl]
Thrombin bovine; [18]
  Km: 410 µM
FXa human
  Km: 340 µM

B1: FXa bovine (Bos taurus) (protein)
chain: IVGGRDCAEGECPWQALLVNEENEGFCGGTILNEFYVLTAAHCLHQAKRFTVRVGDRNTEQEEGNEMAHEVEMTVKHSRFVKETYDFDIAVLRLKTPIRFRRNVAPACLPEKDWAEATLMTQKTGIVSGFGRTHEKGRLSSTLKMLEVPYVDRSTCKLSSSFTITPNMFCAGYDTQPEDACQGDSGGPHVTRFKDTYFVTGIVSWGEGCARKGKFGVYTKVSNFLKWIDKIMKARAGAAGSRGHSEAPATWTVPPPLPL
[1]
  Km: 290 µM
[2]
  Km: 210 µM
  kcat: 350 sek^-1
  kcat/Km: 1.66 l/μmol · sek
[3]
  Km: 220 µM
  kcat: 180 sek^-1
  kcat/Km: 0.82 l/μmol · sek
[4]
  Km: 450 µM
  kcat: 245 sek^-1
  kcat/Km: 0.55 l/μmol · sek
[5]
  Km: 160 µM
  kcat: 225 sek^-1
  kcat/Km: 1.41 l/μmol · sek
[6]
  Km: 190 µM
[7]
  Km: 160 µM
  kcat: 220 sek^-1
  kcat/Km: 1.37 l/μmol · sek
[8]
  Km: 170 µM
  kcat: 200 sek^-1
  kcat/Km: 1.17 l/μmol · sek
[9]
  Km: 110 µM
[10]
  Km: 220 µM
  kcat: 230 sek^-1
  kcat/Km: 1.04 l/μmol · sek
[11]
  Km: 150 µM
[12]
  Km: 120 µM
  kcat: 140 sek^-1
  kcat/Km: 1.14 l/μmol · sek
[13]
  Km: 200 µM
  kcat: 210 sek^-1
  kcat/Km: 1.05 l/μmol · sek
[14]
  Km: 270 µM
  kcat: 260 sek^-1
  kcat/Km: 0.96 l/μmol · sek
[15]
  Km: 190 µM
  kcat: 170 sek^-1
  kcat/Km: 0.89 l/μmol · sek
[16]
  Km: 40 µM
[17]
  Km: 260 µM
  kcat: 280 sek^-1
  kcat/Km: 1.07 l/μmol · sek
